Results: paper PMC9824680

Substrate: O=[N+]([O-])c1ccc(O[C@@H]2O[C@H](CO)[C@@H](O)[C@H](O)[C@H]2O)cc1
Assay: purified protein
Conditions: free enzyme, 100 mM citrate phosphate pH 6.5, 50 °C, pNPG 0.05–25 mM

B1: β-Glucosidase from Thermotoga maritima (bgl) (Thermotoga maritima MSB8) (protein)
chain: MNVKKFPEGFLWGVATASYQIEGSPLADGAGMSIWHTFSHTPGNVKNGDTGDVACDHYNRWKEDIEIIEKLGVKAYRFSISWPRILPEGTGRVNQKGLDFYNRIIDTLLEKGITPFVTIYHWDLPFALQLKGGWANREIADWFAEYSRVLFENFGDRVKNWITLNEPWVVAIVGHLYGVHAPGMRDIYVAFRAVHNLLRAHARAVKVFRETVKDGKIGIVFNNGYFEPASEKEEDIRAVRFMHQFNNYPLFLNPIYRGDYPELVLEFAREYLPENYKDDMSEIQEKIDFVGLNYYSGHLVKFDPDAPAKVSFVERDLPKTAMGWEIVPEGIYWILKKVKEEYNPPEVYITENGAAFDDVVSEDGRVHDQNRIDYLKAHIGQAWKAIQEGVPLKGYFVWSLLDNFEWAEGYSKRFGIVYVDYSTQKRIVKDSGYWYSNVVKNNGLED
Which results are given for B1?
Km: 220 ± 80 µM; Vmax: 7.27 µM/min
